Experimental data reported in patent US20250206841A1 (ADEPT THERAPEUTICS, published 2025).

How the values were obtained:
[1] = biological target: cynomolgus Trop-2-His protein (cynomolgus); test: ELISA, coated Trop-2 protein
[2] = biological target: T1, human Trop-2 expressed on cell surface (human, UniProt P09758 27-323); test: flow cytometry, MDA-MB-231-GFP cells
T1 sequence (looked up): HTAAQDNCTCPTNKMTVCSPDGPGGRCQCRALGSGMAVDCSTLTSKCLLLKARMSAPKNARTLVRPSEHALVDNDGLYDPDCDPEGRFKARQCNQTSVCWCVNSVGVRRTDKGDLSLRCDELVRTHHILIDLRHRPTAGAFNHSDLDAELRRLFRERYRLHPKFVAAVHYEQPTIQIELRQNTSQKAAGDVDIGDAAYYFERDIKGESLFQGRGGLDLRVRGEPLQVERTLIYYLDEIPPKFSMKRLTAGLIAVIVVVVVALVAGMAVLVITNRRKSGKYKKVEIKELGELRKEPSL
Experimental: (§1) Cells were then resuspended in FACS buffer (1×DPBS/1% FBS) at 10⁶/ml concentration. One hundred microliter (100 μl) of cells were aliquoted into a single well in 96 well plates. The antibodies to be tested were serially diluted at 1:3 fold starting at 15 μg/mL and were then added into each well. The antibodies were mixed with cells and the mixtures were incubated on ice for 1 hour. After washing with FACS buffer, one hundred microliter (100 μl) of 1:400 diluted PE-conjugated anti-human Fc secondary antibody (Jackson Immuno Research) was added into each well and incubated for 30 minutes on ice. After washing with FACS buffer, stained cells were resuspended at diluted 7-ADD (Biolegend, used at 1:100 dilution) and analyzed on Guava 11HT or 5HT (Luminex). Data was analyzed using Flowjo software. EC₅₀ values were calculated using GraphPad Prism. Sacitnzurnab govitecan was used as positive control. Anti-HEL.hIgG1 was used as isotype negative control. Similar assay was performed using MCF-7 cells (known to express human Trop-2).

[3] = biological target: T1, human Trop-2 expressed on cell surface; test: flow cytometry, MCF-7 cells
Experimental: as §1

human Trop-2-His protein [4] = biological target: T2, human Trop-2-His protein (human, UniProt P09758 27-274); test: BLI (Gator Plus), Ab on HFC probe
T2 construct: extracellular domain; Assay paragraphs say only 'Trop-2-His'; also called hTrop-2; Kactus Cat #TRP-HM121; not shown: His tag
T2 sequence (looked up): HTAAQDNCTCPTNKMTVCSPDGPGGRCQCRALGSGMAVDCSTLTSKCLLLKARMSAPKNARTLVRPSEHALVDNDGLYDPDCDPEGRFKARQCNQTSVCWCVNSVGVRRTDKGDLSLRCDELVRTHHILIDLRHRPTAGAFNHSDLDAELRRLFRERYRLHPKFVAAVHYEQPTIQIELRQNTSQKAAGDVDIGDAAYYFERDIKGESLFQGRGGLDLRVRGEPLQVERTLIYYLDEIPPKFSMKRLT

human Trop-2-His protein [5] = biological target: T2, human Trop-2-His protein; test: BLI (Gator Prime), positive control at 1 µg/ml on HFC probe; second line of values
[6] = biological target: cynomolgus Trop-2-His protein (cynomolgus); test: as above
[7] = biological target: T1, human Trop-2 expressed on cell surface; test: cell-based or functional assay
human Trop-2-His protein [8] = biological target: T2, human Trop-2-His protein; test: BLI (Gator Prime), positive control at 1 µg/ml on HFC probe
[9] = biological target: cynomolgus Trop-2-His protein (cynomolgus); test: as above
human Trop-2-His protein [10] = biological target: T2, human Trop-2-His protein; test: ELISA, coated Trop-2 protein
Experimental: Purified antibodies were tested by ELISA to confirm their binding and affinity against human and cynomolgus Trop-2-His protein. Briefly, 96-well Maxisorp plates (Nunc) were coated with 100 μl/well of 0.5 μg/ml human (Kactus Cat #TRP-HM121, or Sino Biological, Cat #10428-HO8H) or cynomolgus Trop-2 protein (Kactus Cat #TRP-CM121, or Sino Biological, Cat #90893-CO8H) diluted in 1×PBS (GIBCO) overnight at 4° C. Plates were washed four times with 300 μl/well washing buffer (1×PBST, diluted from 20×PBST (Thermo Scientific) with distilled water)) and then blocked with 300 μl/well of blocking buffer (1×PBST/3% BSA (BSA, Sigma)) for 2 hours at RT on plate shaker at 100 rpm. Plates were washed and added with 100 μl/well of testing antibodies, which were serial diluted with assay buffer (PBST/1% BSA). The antibodies were incubated at room temperature for 2 hours on plate shaker at 100 rpm. Plates were washed. One hundred microliters (100 μl) of 1:10,000 diluted horseradish peroxidase (HRP) conjugated anti-hIgG antibody (Jackson Immuno Research) was added into each well and incubated at room temperature for 1 hour on plate shaker at 100 rpm. Plates were washed and added with 100 μl/well TMB substrate for color development in dark at room temperature for up to 10 minutes. After addition of 50 μl/well of stop solution (1N H₂SO₄), plates were read at 450 nm on a plate reader (SpectraMax M5). EC₅₀ values were calculated using Graphpad Prism. Sacituzumab govitecan, was used as positive control. Anti-HEL.hIgG1 was used as isotype control.

- EC50 [1]: 0.017 nM
- EC50 [2]: 0.09 nM
- EC50 [3]: 2.2 nM
- kon (human Trop-2-His protein [4]): 239000 M⁻¹ s⁻¹
- Kd (human Trop-2-His protein [5]): 0.497 nM
- koff (human Trop-2-His protein [5]): 0.00014 s⁻¹
- kon (human Trop-2-His protein [5]): 281000 M⁻¹ s⁻¹
- Kd [6]: 0.772 nM
- koff [6]: 0.00025 s⁻¹
- kon [6]: 326000 M⁻¹ s⁻¹
- EC50 of ADCC (NFAT-CD16 reporter), MCF-7; average from 3 plates [7]: 2.72 nM
- EC50 of ADCC (NFAT-CD16 reporter), MDA-MB-231; average from 3 plates [7]: 0.55 nM
- Internalization %, MCF-7, 0.25 µg/ml, 1 h [7]: 30%
- Internalization %, MCF-7, 0.25 µg/ml, 2 h [7]: 43%
- Internalization %, MCF-7, 0.25 µg/ml, 4 h [7]: 44%
- Internalization %, MCF-7, 0.5 µg/ml, 1 h [7]: -4%
- Internalization %, MCF-7, 0.5 µg/ml, 2 h [7]: 41%
- Internalization %, MCF-7, 0.5 µg/ml, 4 h [7]: 55%
- Internalization %, MDA-MB-231, 0.25 µg/ml, 2 h [7]: 41%
- Internalization %, MDA-MB-231, 0.25 µg/ml, 4 h [7]: 46%
- Internalization %, MDA-MB-231, 0.5 µg/ml, 2 h [7]: 42%
- Internalization %, MDA-MB-231, 0.5 µg/ml, 4 h [7]: 45%
- Internalization %, MDA-MB-231, 1 µg/ml, 2 h [7]: 43%
- Internalization %, MDA-MB-231, 1 µg/ml, 4 h [7]: 49%
- Internalization %, MDA-MB-231, 2 µg/ml, 2 h [7]: 43%
- Internalization %, MDA-MB-231, 2 µg/ml, 4 h [7]: 48%
- Kd (human Trop-2-His protein [8]): 0.755 nM
- koff (human Trop-2-His protein [8]): 0.00022 s⁻¹
- kon (human Trop-2-His protein [8]): 285000 M⁻¹ s⁻¹
- Kd [9]: 0.614 nM
- koff [9]: 0.00022 s⁻¹
- kon [9]: 405000 M⁻¹ s⁻¹
- EC50 (human Trop-2-His protein [10]): 0.014 nM
B1: Sacituzumab govitecan (antibody, INN chains, looked up, V domains shown)
VH: QVQLQQSGSELKKPGASVKVSCKASGYTFTNYGMNWVKQAPGQGLKWMGWINTYTGEPTYTDDFKGRFAFSLDTSVSTAYLQISSLKADDTAVYFCARGGFGSSYWYFDVWGQGSLVTVSS
VL: DIQLTQSPSSLSASVGDRVSITCKASQDVSIAVAWYQQKPGKAPKLLIYSASYRYTGVPDRFSGSGSGTDFTLTISSLQPEDFAVYYCQQHYITPLTFGAGTKVEIKR
modifications: SN-38 payload (govitecan)
